# Experimental data: PMC2944805, “A Major Determinant of Cyclophilin Dependence and Cyclosporine Susceptibility of Hepatitis C Virus Identified by a Genetic Approach” (PLoS Pathogens, 2010)
# B1: synthetic WT peptide, residues 304-323 of NS5A (peptide)
# peptide: GFPRALPAWARPDYNPPLVE
# notes: residues 304-323 of NS5A of HCV JFH-1 (genotype 2a); numbers count on: NS5A itself, not the polyprotein; also called 20-mer peptide (G304-E323); source: synthetic peptide, bought: NEO BioScience
# Biological target: T1, 15N-labeled human CyPA (human, UniProt P62937 1-165, 15N-labeled)
# T1 construct: human cyclophilin A (CyPA); also called cyclophilin A
# Assay: NMR titration; peptide added stepwise to 15N-labeled CyPA (~0.5 mM); 2D 1H,15N-HSQC, 22°C; 50 mM NaH2PO4/Na2PO4, pH 6.3, 40 mM NaCl, 2 mM EDTA, 1 mM DTT
# Details: both partners purified
binder,measurement,value
B1,binding result,binds
